Reference: the supplement of paper PMC10567573
± gives the standard deviation.

Experiment: protein stability index of a GFP-peptide fusion (GPS, HEK-293T) (PSI 1-6); higher = more stable
Conditions: c terminus: a fixed tail appended
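Also: 24-mer peptide tiles fused after GFP, lentivirally expressed, FACS-sorted into six equal bins by GFP/DsRed ratio, decoded by Illumina sequencing, PSI is the read-weighted mean bin number.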

Sequence	protein stability index (treatment: DMSO)	protein stability index (treatment: MLN4924 1 uM, 8 h)
FRRGPAPQDQAGPGGAPRVASRNL [CLPTM1]	4.63 ± 0.17	4.25 ± 0.3
FSAHYDAVEAELKSSTVGLVTLND [FAM50A]	3.86 ± 0.16	3.94 ± 0.32
FSEALAEGAVKMGMPSSLAHRIAA [PYCR3]	3.12 ± 0.42	3.06 ± 0.52
FSQSAGLIQHQRIHKGEKPYQCSQ [ZSCAN9]	3.55 ± 0.071	3.68 ± 0.18
FSSERGPRMCRYVRERDRLGNEYP [CDC25A]	2.93 ± 0.29	2.61 ± 0.58
FSVTGGTEEKSSLLMSCLACDTWA [RPAIN]	2.27 ± 0.26	2.27 ± 0.25
FSVVRRCVKLCTGHEYAAKIINTK [CAMK2B]	2.1 ± 0.35	2.21 ± 0.19
FTPPTSLTRAGMSYYNSPGLHVQH [CCDC6]	2.49 ± 0.52	2.84 ± 0.34
FVLQAIGIPGWGFSGWISALVVPK [SCAMP3]	3.08 ± 0.53	2.88 ± 0.37
FWNQGLTWKVLFCSMSATFTLNFF [CLCN6]	3.31 ± 0.5	3.17 ± 0.21
FWRIDEDYPVQVAPLSNGLCCAFS [WSB1]	2.06 ± 0.43	2.41 ± 0.39
FYGHSHHSHHGHPSHQSHSLPNRR [C10orf62]	3.99 ± 0.29	4.21 ± 0.21
FYLALYKQMSFLEKRGCPRTALEY [TCF25]	2.66 ± 0.4	2.01 ± 0.4
GCNSVLIQFATPNDFCSFYNILKT [CARM1]	3.23 ± 0.62	2.84 ± 0.61
GDCDAREEKQRELARKGSLKNGSM [FAM219A]	5.1 ± 0.26	5.35 ± 0.4
GDHERAIDFSPYLEPLGAPQAPAP [CEBPB]	4.56 ± 0.16	4.55 ± 0.24
GDPEEIRMLIHKTEDVNTLDSEKR [ANKRD44]	5.51 ± 0.16	5.33 ± 0.33
GEINVEMDAAPGVDLSRILNEMRD [KRT17]	4.03 ± 0.22	3.99 ± 0.14
GEYIYTGNAKGKILVLKTDSQDLV [RBBP5]	2.25 ± 0.24	2.45 ± 0.57
GFAMYYFTYDPWIGKLLYLEDFFV [SAT1]	3.16 ± 0.17	3.03 ± 0.34
GFLLRYAVIKSNHSYCRMFLQRGA [ASB7]	2.6 ± 0.37	2.34 ± 0.38
GGGPEATLSISDVRTLSEPPDKGE [ZBTB22]	5.33 ± 0.29	5.44 ± 0.31
GGGSSRISSVLAGGSCRAPSTYGG [KRT16]	3.04 ± 0.59	3.46 ± 0.18

Sequence	protein stability index (treatment: DMSO)	protein stability index (treatment: MLN4924 1 uM, 8 h)
GGIVTDTPASNHLPGWEDIESKIP [SLC19A2]	4.77 ± 0.17	4.87 ± 0.12
GGNHFRGTSDYDDVLSCEYYSPIL [KLHL13]	2.81 ± 0.096	2.77 ± 0.18
GGNKKSDGVKESSESTNTTIEDED [CAMK2A]	5.7 ± 0.087	5.53 ± 0.26
GGRKGTAIELQGHNDRVQALSYAQ [WDFY2]	4.28 ± 0.21	4.38 ± 0.19
GGWFCEGSFNGSEKETMQFLNDRL [KRT36]	3.27 ± 0.23	3.17 ± 0.41
GGYLTELEDGFYLTAFICFLVFIL [MFSD9]	1.98 ± 0.22	2.14 ± 0.34
GHGIVGTIVKARDKLYHPECFMCS [PDLIM4]	2.45 ± 0.069	2.67 ± 0.21
GILERYWLSSRAAAIKVNDSVPFH [MYORG]	2.02 ± 0.42	1.78 ± 0.28
GILTLAMIAFFFIIIYLGPMVLMI [CDS2]	2.7 ± 0.57	2.48 ± 0.35
GKEVVKQLEEGLKDTDLARVRRFQ [M1AP]	4.58 ± 0.35	4.62 ± 0.2
GKIRRGAYALPAGLSAPARCLVRC [TRIB3]	2.47 ± 0.23	2.7 ± 0.33
GLPFILRPTSCWQLDWDELETNQQ [M1AP]	2.62 ± 0.056	2.67 ± 0.24
GLQNCVYPWDENHCKEKRKTSLLD [NETO1]	3.24 ± 0.25	3.52 ± 0.28
GMKIDLIDGKGRGVIATKQFSRGD [KMT5A]	3.49 ± 0.15	4 ± 0.63
GMLKEGVRLDRVRGGRQKYKRRID [ESRRG]	4.19 ± 0.14	4.15 ± 0.33
GPAHGPAQEEPWEKKESLGAAQEA [ZNF232]	5.6 ± 0.22	5.49 ± 0.16
GPALWLRSTCVYVCALSALPAGPL [PLEKHN1]	2.98 ± 0.63	3.27 ± 0.74
GPPRAPGRSGWPAGGAPGSPIPSP [HES6]	4.32 ± 0.18	4.26 ± 0.2
GPYDPNSVRISFAKGWGPCYSRQF [SMAD6]	2.19 ± 0.17	2.25 ± 0.18
GQPFNSDDRNTACHHGLVADSLQA [DLC1]	4.49 ± 0.2	4.63 ± 0.1
GQVTPRGLRLRLPRRESLLRGLCR [C6orf223]	3.24 ± 0.33	3.23 ± 0.34
GRARFTTYEVRMRTNLPIFKLKES [SNX12]	2.27 ± 0.11	2.17 ± 0.22
GRKRRQTSMTDFYHSKRRLIFSKR [CDKN1A]	3.35 ± 0.51	4.07 ± 0.38

Sequence	protein stability index (treatment: DMSO)	protein stability index (treatment: MLN4924 1 uM, 8 h)
GSAPNSPMALLTIGSSSEKEIDDV [TFE3]	5.26 ± 0.28	5.55 ± 0.18
GSAVARAVCKATTHEVMGPKKKHL [SNAP91]	4.58 ± 0.19	4.83 ± 0.17
GSSRPCLDFLQEVTRQPRNLQDLC [ASB7]	3.9 ± 0.31	3.97 ± 0.23
GSSYPTTTISYLPHAPPFAGGHPA [JUNB]	3.12 ± 0.14	3.09 ± 0.13
GTPADTGDLSPGHGASAPSVSREA [PWWP2B]	5.29 ± 0.18	5.56 ± 0.22
GTTLRGRSDADLVVFLSPLTTFQD [OAS1]	2.18 ± 0.4	2.28 ± 0.31
GVRDSGSPPLHANTSLHVFVLDEN [PCDHGC5]	3.51 ± 0.21	3.51 ± 0.24
GVYGLQRNLLVENIIDIYKQESTR [TRIM55]	2.61 ± 0.47	2.95 ± 0.49
GWWKRLFTLKEEKPKMYFMTMIVS [ARL6IP1]	2.95 ± 0.66	2.04 ± 0.57
GYNLTSISESMAACTRSLLGDPPP [HDAC6]	3.52 ± 0.38	3.4 ± 0.2
HEGEDQFLSLEASTETLVHVSDED [DLC1]	5.61 ± 0.17	5.58 ± 0.32
HEKERPEHKSLESLADGGSASPIK [FANCE]	5.49 ± 0.21	5.31 ± 0.25
HEQALFIYVHILKDTRMAEEYCHK [VPS39]	2.57 ± 0.62	2.4 ± 0.59
HFDVLPTEFTLGDDKHYGGFTNKQ [PTPRD]	4.48 ± 0.16	4.47 ± 0.25
HHPENGEEAVTVLEDLESELDDPG [ZNF24]	5.49 ± 0.22	5.65 ± 0.16
HHVPGGGNVKIDSQKLNFREHAKA [MAP2]	4.3 ± 0.43	4.4 ± 0.27
HKACEVAPLQSVFQGQKTELNNCI [TRIM63]	3.78 ± 0.12	3.67 ± 0.41
HKHVHFSSSFTSIASEWFLIANRS [SLC22A15]	2.43 ± 0.57	2.04 ± 0.33
HLDIWKSAAWMKERTSPGAIHYCA [SPDEF]	2.21 ± 0.39	2.4 ± 0.32
HLDRTSVSSLSEVEEVDMAEEFEQ [ELOA2]	5.66 ± 0.34	5.48 ± 0.4
HLGCMHYTVRAPVGVAGLISPWNL [ALDH8A1]	2.48 ± 0.97	2.31 ± 0.64
HLLSWFSPTIIFDNWIPLLWCANI [DHCR7]	2.98 ± 0.18	3.08 ± 0.21
HLTRHQRTHTGEKPYKCTLCGENF [ZNF263]	3.36 ± 0.53	3.45 ± 0.51

Sequence	protein stability index (treatment: DMSO)	protein stability index (treatment: MLN4924 1 uM, 8 h)
HMESRMVTETEETQEKKAESKEPI [SDE2]	5.48 ± 0.17	5.46 ± 0.47
HNDRVQALSYAQHTRQLISCGGDG [WDFY2]	2.77 ± 0.28	2.53 ± 0.17
HRAVASRSEEAVQVLIKHSADVNA [ANKRD44]	4.5 ± 0.28	4.47 ± 0.31
HSAVARISRAQYNALTLTFQRAMH [STX11]	2.08 ± 0.31	2.14 ± 0.19
HTFNAHAATDITGFGILGHSQNLA [SEPHS2]	3 ± 0.35	3.04 ± 0.24
HTGEKPYKCLECGKAFSQNSGLIN [ZNF24]	2.68 ± 0.19	2.88 ± 0.21
HTRSPYSTFYPPYHSPELTTPPGH [NEUROD6]	3.23 ± 0.14	3.18 ± 0.15
HWNSTIKRKVDTGGFLSESKDCKP [MYBL2]	3.93 ± 0.57	4.12 ± 0.32
HWPQGPTGPPGPPGPMGPPGPPGP [EMID1]	4.66 ± 0.22	4.73 ± 0.45
HYMEENLMDGGDLPSVTDIRRPRL [PLK2]	4.15 ± 0.16	4.22 ± 0.13
IAENGVSERDSEAAKQNHVTADDF [EHMT1]	5.39 ± 0.15	5.42 ± 0.11
IEEYMVHVEEHFQLLARRMQVDKK [FUT8]	3.06 ± 0.35	3.2 ± 0.27
IELAPLSMPRINHGVLSAEGFLFV [GAN]	3.34 ± 1.1	2.81 ± 0.61
IETEDQIDKKPVSEKTDESDTIPY [MIA2]	5.53 ± 0.3	5.3 ± 0.36
IEVKTKGGSKYLIYRRYRQFHALQ [NCF4]	2.22 ± 0.35	2.2 ± 0.33
IFMLCTLVLAIPLLLILVSYVHIL [OR10K2]	3.35 ± 0.26	3.18 ± 0.36
IFYGSGIFNYMRLGSTKLSDKDKA [OR3A1]	1.93 ± 0.23	2.12 ± 0.19
IGPNVLMVHKRSHTGERPFQCNQC [IKZF1]	2.93 ± 0.26	3.17 ± 0.43
IIEYRGKFMLREQFEANGYFFKRP [KMT2E]	2.31 ± 0.63	2.37 ± 0.36
IIKQLKDVFERDWYSPYAKTLQPT [PLD5]	1.98 ± 0.59	1.97 ± 0.39
